From patent publication US20260085128A1 (BIOLEGEND, published 2026)

T1: human CD157 (human, UniProt Q10588 33-293)
T1 construct: Endogenous CD157 on human U-937 cells and on human blood monocytes and granulocytes; also called BST-1; bone marrow stromal cell antigen 1
T1 sequence: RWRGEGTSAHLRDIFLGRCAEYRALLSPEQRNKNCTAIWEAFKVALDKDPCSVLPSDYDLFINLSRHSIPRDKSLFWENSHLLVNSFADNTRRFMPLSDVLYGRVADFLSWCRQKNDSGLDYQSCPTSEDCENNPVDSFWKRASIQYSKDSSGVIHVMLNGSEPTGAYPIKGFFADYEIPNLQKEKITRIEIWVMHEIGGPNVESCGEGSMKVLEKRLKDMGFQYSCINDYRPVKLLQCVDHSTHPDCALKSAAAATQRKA

B1: anti-CD157 monoclonal antibody AB1 (antibody, V domains shown)
VH: QVQLKESGPGLVQPSQTLSLTCTVSGFSLTSYHVSWVRQPPGKGLEWMGIIWTGGSTAYNSLLKSRLSISRDTSKSQVFLKMNSLQTEDTATYYCARSITPTFFDYWGQGVMVTVSS
VL: QFVLTQPNSVSTNLGSTVKLSCKRSTGNFGNNYVNWYQQHEGRSPTTMIYRDDKRPDGVPDRFSGSIDRSSNSALLTISNVQTEDEADYFCQSYSSGIVFGGGTKLTVL
notes: Hybridoma-derived monoclonal antibody; It was detected with an anti-rat IgG-PE secondary antibody; also called antibody 1; clone 1
B2: anti-CD157 monoclonal antibody AB3 (antibody, V domains shown)
VH: EVHLVESGGGLVQPGRSLKLSCAASGFTFSNYDMAWIRQAPAKGLEWVASISIRGGSTYYRDSVKGRFTVSRDNAKSTLYLQMDSLRSEDTATYYCVRGTDYYYDYFDYWGQGVMVTVSS
VL: NIQMTQSPSLLSASVGDRVTLSCKAGRNINSYLAWYQQMLGEAPKLLIYNANSLQTGIPSRFSGSGSGTDYTLTISSLQPEDVATYFCQQYNSWTNTFGAGTKLELK
notes: Hybridoma-derived monoclonal antibody; It was detected with an anti-rat IgG-PE secondary antibody; also called antibody 3; clone 3

How the values were obtained:
[1] = molecular target: T1, human CD157; assay: flow cytometry on U-937 cells, anti-rat IgG-PE secondary
Protocol: U-937 cells were grown in RPMI media supplemented with 10% FBS in T75 culture flask, to about 80% confluency. Various concentrations of exemplary generated anti-CD157 antibodies were added, including 2, 1, 0.5, 0.25, 0.125 and 0.06 μg, and allowed to incubate for 15 minutes. Cells were then washed twice with FACS wash buffer and stained with anti-rat IgG-PE secondary antibody for 15 minutes. Cells were washed with FACS buffer and analyzed on a BD LSRII flow cytometer.

[2] = molecular target: T1, human CD157; assay: flow cytometry, summary sentence of Example 3

Row | Binder | binding result [1] | binding result [2]
1 | B1 | binds | 
2 | B2 |  | binds
